# T1: human TREM2 on cells (human, UniProt Q9NZC2 19-230)
# T1 sequence: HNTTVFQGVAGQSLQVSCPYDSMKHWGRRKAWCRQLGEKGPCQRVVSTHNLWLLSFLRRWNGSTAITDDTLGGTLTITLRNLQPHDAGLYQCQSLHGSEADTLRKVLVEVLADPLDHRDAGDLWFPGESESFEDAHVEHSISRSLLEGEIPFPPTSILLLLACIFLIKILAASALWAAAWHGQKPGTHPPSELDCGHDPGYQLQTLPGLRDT
# T2: soluble monomeric human TREM2 (human, UniProt Q9NZC2 19-174, limits assumed)
# T2 construct: Not the same as shed sTREM2; also called soluble monomeric TREM2
# T2 sequence: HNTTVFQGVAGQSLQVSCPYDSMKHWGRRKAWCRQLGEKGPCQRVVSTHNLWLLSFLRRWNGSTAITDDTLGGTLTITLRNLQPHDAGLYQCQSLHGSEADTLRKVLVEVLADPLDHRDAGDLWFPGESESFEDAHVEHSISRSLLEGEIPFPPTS
# T3: soluble human TREM2 (sTREM2) (human, UniProt Q9NZC2 19-157)
# T3 construct: also called soluble TREM2; TREM2 ectodomain
# T3 sequence: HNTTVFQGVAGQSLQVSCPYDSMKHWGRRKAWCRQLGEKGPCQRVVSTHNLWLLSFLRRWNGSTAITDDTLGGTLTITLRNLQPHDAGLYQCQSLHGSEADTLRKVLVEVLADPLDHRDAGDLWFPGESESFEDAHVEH
# Tests used:
# human TREM2 on cells [1] = target: T1, human TREM2 on cells; experiment: cell-based or functional assay
# human TREM2 on cells [2] = target: T1, human TREM2 on cells; experiment: cell-based or functional assay; remark: listed apart in the source
# [3] = target: T2, soluble monomeric human TREM2; experiment: SPR (Biacore T200), 37 C; IgG on anti-CH1 chip, soluble monomeric TREM2
# [4] = target: T3, soluble human TREM2 (sTREM2); experiment: sandwich ELISA: test antibody coated as capture, sTREM2 from BMDM culture supernatant, biotinylated 3.17A9 as detection
# Source text: For example, as shown in an Example 11 herein, the human TREM2 ELISA assay measured binding of antibodies to sTREM2 by coating onto plate wells the antibody to be tested as capture reagents and with biotinylated IgV-reactive monoclonal antibody 3.17A9 used as the detection reagent. Control antibody 1.16B8 was used as a positive control antibody to establish the standard for sTREM2 binding.
# A human TREM2 ELISA assay was used to measure binding of more than forty antibodies to soluble TREM2 (sTREM2) as follows: test anti-hTREM2 antibodies were coated onto plate wells as capture reagents and a biotinylated IgV-reactive monoclonal antibody, 3.17A9, was used as the detection reagent. Antibody 1.16B8 was used as a control antibody to establish the standard for sTREM2 binding. Plates coated with test or control antibody were incubated with diluted culture supernatant from bone marrow-derived macrophage (BMDM) cultures from transgenic mice expressing hTREM2. sTREM2 is constitutively produced by the BMDM cultures expressing hTREM2 and shed into the culture supernatant. Measurements were recorded at 450 nm for detection and 570 nm for background. The 3.17A9/1.16B8 antibody pair was selected over reagents provided in the R&D Systems kit as the commercial reagents were not compatible with sTREM2 detection of some of the antibodies tested. […]
binder,measurement,setting,value
"hPara.09.v2 hIgG1 N297G (antibody, V domains shown, also called hPara.09.H5.hIgG1.N297G) VH: EVQLVESGGGLVQPGGSLKLSCATSGFPFSNVWLHWVRQASGKGPEWVAHIKAKSDNYATYYAESVKGRFTISRDDSKNTVYLQMNSLKTEDTAVYYCTDILEYWGQGTLVTVSS VL: DVVMTQSPLSLPVTPGEPASISCRSSRSLLTSKGITSLYWYLQKPGQSPQLLIYRMSNLASGIPDRFSGSGSGTDFTLKISRVEAEDVGVYYCAQFLVYPYTFGQGTKVEIKR","EC50, average X04 plaque intensity, human iPSC-derived microglia plaque assay (FIG. 24C)",human TREM2 on cells [1],320 nM
same,"EC50, survival of iPSC-derived microglia (FIG. 23E)",human TREM2 on cells [1],0.065 nM
same,"EC50, total Abeta plaque intensity, human iPSC-derived microglia plaque assay (FIG. 24B)",human TREM2 on cells [1],330 nM
same,"phospho-SYK/total SYK relative to anti-gD control, iPSC-derived microglia, 1 hour",human TREM2 on cells [1],2 fold
same,"phospho-SYK/total SYK relative to anti-gD control, iPSC-derived microglia, 4 hours",human TREM2 on cells [1],> 10 fold
same,"EC50, Jurkat NFAT luciferase reporter cells",human TREM2 on cells [2],0.0245 µg/mL
same,"IC50, TREM2 shedding inhibition in Jurkat-NFAT reporter cells (sTREM2 ELISA)",human TREM2 on cells [2],0.162 µg/mL
same,Kd,[3],0.016 nM
same,koff,[3],3.5e-05 s⁻¹
same,kon,[3],2.3e+06 M⁻¹ s⁻¹
same,binding result,[4],no binding

# From patent US20220389097A1 (Genentech, published 2022)
